Measurements as given in paper PMC10018337.
Where a chain is given by its changes, count along the chain named.

How the values were obtained:
Test in all cases: EMSA
CeMETT10-FLΔL = molecular target: T1, CeMETT10-FLΔL (Caenorhabditis elegans, UniProt Q09357 1-479, del386-430)
T1 sequence: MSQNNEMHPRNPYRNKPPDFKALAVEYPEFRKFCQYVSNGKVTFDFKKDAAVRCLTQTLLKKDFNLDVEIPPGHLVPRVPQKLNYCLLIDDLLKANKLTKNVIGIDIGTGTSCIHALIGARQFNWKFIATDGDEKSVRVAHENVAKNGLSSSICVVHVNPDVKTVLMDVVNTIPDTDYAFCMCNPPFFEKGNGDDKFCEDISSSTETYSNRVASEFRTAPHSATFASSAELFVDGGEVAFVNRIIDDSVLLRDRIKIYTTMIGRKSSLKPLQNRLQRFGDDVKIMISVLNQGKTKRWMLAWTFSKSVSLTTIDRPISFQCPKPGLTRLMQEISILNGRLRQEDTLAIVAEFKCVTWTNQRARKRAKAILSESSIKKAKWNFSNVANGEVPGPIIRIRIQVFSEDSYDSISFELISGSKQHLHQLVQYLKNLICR

CeMETT10-FLΔL_RRR/7E = molecular target: T2, CeMETT10-FLΔL_RRR/7E (Caenorhabditis elegans, UniProt Q09357 1-479, R360E;A361E;R362E;K363E;R364E;A365E;K366E;del386-430)
T2 sequence: T1 sequence with R360E, A361E, R362E, K363E, R364E, A365E, K366E

CeMETT10-MTD = molecular target: T3, CeMETT10-MTD (Caenorhabditis elegans, UniProt Q09357 1-314)
T3 sequence: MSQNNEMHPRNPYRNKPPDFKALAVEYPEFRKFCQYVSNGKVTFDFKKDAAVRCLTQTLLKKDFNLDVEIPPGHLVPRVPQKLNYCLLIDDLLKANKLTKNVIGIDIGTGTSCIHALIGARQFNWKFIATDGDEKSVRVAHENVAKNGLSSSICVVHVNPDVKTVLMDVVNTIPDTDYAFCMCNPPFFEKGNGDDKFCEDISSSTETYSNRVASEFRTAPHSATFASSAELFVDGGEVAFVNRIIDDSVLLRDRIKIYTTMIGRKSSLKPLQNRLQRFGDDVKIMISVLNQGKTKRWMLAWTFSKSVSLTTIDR

B1: sams-hp-ls (structured_RNA)
RNA: GGCAACAAUAUGUUUCUUUACCUGUUACAACGGUUACUUUGAUUACAGAAACGGUGACUAAAACGGGUAUGAUCAUGUUGUGCCC
Work on B1 yielded a Kd (CeMETT10-FLΔL) of 0.14 µM, a Kd (CeMETT10-FLΔL_RRR/7E) of 8.3 µM and a Kd (CeMETT10-MTD) of 22.3 µM.
